Data as given in PMC9418810.

Biological target: AcMYB1 (full length) in the AD plasmid pGADT7 (Allium cepa (onion))

Substance: AcB2 (full length, 1–615 aa) in the BD plasmid pGBKT7 (natural protein)
- AcANS or AcF3H1 promoter-luciferase reporter activation in Arabidopsis leaf protoplasts, coexpression of AcB2 and AcMYB1 compared with AcMYB1 alone: > 2.5 fold
